From patent US20140011735A1, “ANTIVIRAL COMPOSITION” (AMRITA THERAPEUTICS LIMITED, priority 2011, published 2014)

Experiments:
[1] = test system: HIV-1 virus, three clades (European, Indian and African origin); settings: three clades of HIV-1; due to interference in entry of HIV-1 to host cells; cited from earlier work
[2] = test system: HIV-1 Env SF162 mediated fusion of HeLa effector cells with HEK293-CCR5 target cells expressing human CD4; format: cell-based; settings: β-Gal activity at 570 nm after 2.5 h at 37° C.; FIG. 4
HIV-1 NL4-3 = assay: Inhibition of HIV-1 NL4-3 replication in peripheral blood lymphocytes (p24 antigen ELISA); format: cell-based; settings: FIG. 2, similar to Enfuvirtide (T20)

Molecule | growth inhibition of HIV-1 [1] [%] | inhibition of cell to cell fusion compared to positive control Enfuvirtide (T20) [2] | EC50 (HIV-1 NL4-3) [nM]
azurin: 128 amino acid P. aeruginosa protein with anticancer, anti-HIV-1 and antiparasitic activity (protein, UniProt P00282 21-148, looked up) Azurin: AECSVDIQGNDQMQFNTNAITVDKSCKQFTVNLSHPGNLPKNVMGHNWVLSTAADMQGVVTDGMASGLDKDYLKPDDSRVIAHTKLIGSGEKDSVTFDVSKLKEGEQYMFFCTFPGHSALMKGTLTLK | ≥ 90 | – | –
MPT63 (protein, UniProt P9WIP1 30-159, looked up) Immunogenic protein MPT63: AYPITGKLGSELTMTDTVGQVVLGWKVSDLKSSTAVIPGYPVAGQVWEATATVNAIRGSVTPAVSQFNARTADGINYRVLWQAAGPDTISGATIPQGEQSTGKIYFDVTGPSPTIVAMNNGMEDLLIWEP | – | more inhibition of cell to cell fusion | 0.01
